T1: Yfr024 SH3 (LSB3_YEAST), P43603
T1 chain: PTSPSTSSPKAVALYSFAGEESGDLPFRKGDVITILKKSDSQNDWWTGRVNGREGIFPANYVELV

T2: Yhr016c SH3 (YSC84_YEAST), P32793
T2 chain: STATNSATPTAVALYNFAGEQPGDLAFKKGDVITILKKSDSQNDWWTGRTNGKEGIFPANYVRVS

T3: Boi2 SH3 (BOI2_YEAST), P39969
T3 chain: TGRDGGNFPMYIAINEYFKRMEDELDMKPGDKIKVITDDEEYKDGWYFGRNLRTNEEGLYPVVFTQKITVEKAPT

T4: Boi1 SH3 (BOI1_YEAST), P38041
T4 chain: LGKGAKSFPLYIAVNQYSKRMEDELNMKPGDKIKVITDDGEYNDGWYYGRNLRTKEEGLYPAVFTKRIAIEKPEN

T5: Rvs167 SH3 (RV167_YEAST), P39743
T5 chain: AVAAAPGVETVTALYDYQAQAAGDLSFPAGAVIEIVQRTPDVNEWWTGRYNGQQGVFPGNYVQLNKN


Legend:
Test in all cases: SPOT array
[1] = target: T1, Yfr024 SH3 (LSB3_YEAST), P43603
[2] = target: T2, Yhr016c SH3 (YSC84_YEAST), P32793
[3] = target: T3, Boi2 SH3 (BOI2_YEAST), P39969
[4] = target: T4, Boi1 SH3 (BOI1_YEAST), P38041
[5] = target: T5, Rvs167 SH3 (RV167_YEAST), P39743

normalised SPOT signal, Boehringer light units (BLU); mean over the file's lines of this peptide [1] | normalised SPOT signal, Boehringer light units (BLU); mean over the file's lines of this peptide [2] | normalised SPOT signal, Boehringer light units (BLU); mean over the file's lines of this peptide [3] | normalised SPOT signal, Boehringer light units (BLU); mean over the file's lines of this peptide [4] | normalised SPOT signal, Boehringer light units (BLU); mean over the file's lines of this peptide [5] | Binder
298 | 288 | 9.4 | 154 | 22.5 | FFHPAIPLKNAAPF [YER066C-A 112-125]
36400 | 25000 | 67.3 | 295 | 1190 | FLPPPKPFRHTETK [YBR108W 587-600]
-0 | 85.5 | 26.4 | 48.7 | 9 | EVYPIEPPKVVSLK [YLR306W 88-101]
217 | 0 | 44.1 | 61.5 | 91.8 | FSHPLSPLKSNFID [YGL177W 74-87]
7880 | 2660 | 244 | 97.7 | 166 | FKMPKKPQRSKEEV [YOR243C 86-99]
44800 | 42100 | 87.1 | 9870 | 6840 | FHDPILPRRTSTFL [YHL028W 526-539]
68 | 129 | 149 | 63.1 | 61.6 | FFDPESPNKGKLIL [YPL269W 491-504]
267 | 143 | 38.8 | 80.9 | 33.7 | FKAPTNPRKVYSKR [YMR035W 79-92]
370 | 177 | 56.6 | 103 | 202 | EYSPLVPSKMSADK [YBR044C 356-369]
53 | 135 | 2.4 | 70.3 | 28.7 | FDFPLSPVKHENPT [YBR098W 196-209]
50.5 | 43.7 | 55.1 | 78.2 | 47.2 | FENPTIPKKSYSEF [YPR045C 291-304]
5160 | 269 | 308 | 3280 | 398 | FGTPVAPTRTLSRK [YOR070C 179-192]
1060 | 210 | 76 | 57.9 | 0 | FFQPEYPVRMEPDL [YLR128W 194-207]
15300 | 8100 | 66.4 | 218 | 8120 | FLLPNLPMRTFKEI [YIL105C 444-457]
1540 | 301 | 20.4 | 231 | 68.3 | FISPHLPMKGRLVL [YGR068C 471-484]
0 | 242 | 15.3 | 120 | 32.5 | EYFPISPEKKEEME [YGR237C 591-604]
3150 | 762 | 29.9 | 56.4 | 48.4 | EYHPIKPLRSSSST [YDL180W 234-247]

Source: article PMC314469, “Protein Interaction Networks by Proteome Peptide Scanning” (PLoS Biology, 2004)
